Data on 2 substances can be found in PMC8211105.

Assay [1] addresses Spa33^C, purified recombinant (S. flexneri). In words: SEC; Spa33^C alone expressed in E. coli and purified by IMAC and Superdex 200 (20 mM Tris, 200 mM NaCl, pH 7.5); apparent homodimer.
The target in assay [2] is MxiN with an N-terminal His6-tag, purified (S. flexneri) (UniProt Q6XVX6). In words: BLI; His6-MxiN immobilised on Ni-NTA biosensor tips; untagged Spa33 at 400, 200, 100, 50, 25 and 12.5 µg/mL; PBS with 10% glycerol, 0.01% BSA, 0.002% Tween 20; 25°C; Octet RED96; 1:1 Langmuir model; KD from the equilibrium response (Req).

For “Spa33^C, purified recombinant (domain or fragment)”, the stoichiometry N in assay [1] stood at 2. Take “Wild-type Spa33 heterotrimer (one Spa33^FL with two Spa33^C), purified, untagged (from UniProt P0A1K9 1-293) (complex)”: the Kd in assay [2] is 550 nM.
